Laboratory results taken from publication PMC13323110, “Structure and substrate recognition by the bacterial twin-arginine translocation (Tat) core complex” (Nature Microbiology, 2026).
Each block holds one molecule with its values, some of them ahead of it.

Columns and labels:
[1] = target: N. salsuginis TatC (GFP-His removed) (Nitratifractor salsuginis); test: cryo-EM structure; co-expressed TatBC complexes (E. coli, N. salsuginis, M. xanthus) and N. salsuginis TatAC complex, solubilised and purified in GDN
[2] = target: the molecule itself; test: as above
[3] = target: the molecule itself; test: crystal structure; SeMet-labelled isolated periplasmic domain; sitting drop, 21 °C, 0.2 M lithium sulphate, 0.1 M Tris pH 8.5, 10% PEG 8000, 10% PEG 1000
[4] = target: N. salsuginis TatBC complex (Nitratifractor salsuginis); test: cryo-EM structure; 50 μl N. salsuginis TatBC (A280nm = 8.0) mixed with 50 μl CueO peptide (1 mg/ml), 12 h at 4 °C, in GDN
[5] = target: T1, E. coli TatC with C-terminal Twin-Strep tag, expressed from a tatABC plasmid (Escherichia coli, UniProt P69423 1-258); test: densitometry of Coomassie-stained SDS-PAGE of purified complexes; purified TatABC (TatA_26(His)6_TatBC) and TatBC (TatBC_(His)6) at four dilutions, bands quantified with ImageJ; settings: both partners purified
T1 construct: TatC of Escherichia coli, PCR from E. coli genomic DNA (DSM 1116); also called TatC_(strep); not shown: Twin-Strep, C-terminal, kept
T1 sequence: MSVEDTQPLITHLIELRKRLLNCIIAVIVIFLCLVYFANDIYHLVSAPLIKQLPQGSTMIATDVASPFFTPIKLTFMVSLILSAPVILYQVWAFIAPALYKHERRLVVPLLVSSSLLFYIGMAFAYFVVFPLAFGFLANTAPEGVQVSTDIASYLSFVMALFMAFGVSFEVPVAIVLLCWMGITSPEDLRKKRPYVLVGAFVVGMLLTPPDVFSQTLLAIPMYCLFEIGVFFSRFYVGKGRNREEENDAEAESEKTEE

[6] = target: T1, E. coli TatC with C-terminal Twin-Strep …; test: cryo-EM structure; purified E. coli TatABC with an ALFA tag inserted in TatA or TatB, labelled with an anti-ALFA nanobody; 2D class averages and a 6.4 Å map; settings: both partners purified
[7] = target: T2, E. coli TatBC complex purified by a Twin-Strep tag on TatC (sample of the TatBC-MdoD structure) (Escherichia coli, UniProt P69425 1-171; P69423 1-258); test: cryo-EM structure; complex assembled in vitro: Ulp1-cut His6-SUMO-MdoD or -CueO mixed with purified E. coli TatBC or TatABC complex overnight at 4 °C, SEC in 50 mM Tris pH 8.0, 200 mM NaCl, 1 mM EDTA, 0.02% GDN; excess substrate; settings: both partners purified
T2 construct: TatB of Escherichia coli, as m1; TatC of Escherichia coli, as m5; No TatA density was found; source: E. coli, overexpressed TatABC purified solely by the TatC Twin-Strep tag in GDN; only very low levels of TatA in the purified material; copies: 3 + 3
T2 sequence 1: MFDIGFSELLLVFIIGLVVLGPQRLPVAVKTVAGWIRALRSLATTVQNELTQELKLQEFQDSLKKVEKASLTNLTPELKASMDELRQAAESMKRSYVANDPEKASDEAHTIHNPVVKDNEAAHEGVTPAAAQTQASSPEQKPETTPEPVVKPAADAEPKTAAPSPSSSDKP
T2 sequence 2: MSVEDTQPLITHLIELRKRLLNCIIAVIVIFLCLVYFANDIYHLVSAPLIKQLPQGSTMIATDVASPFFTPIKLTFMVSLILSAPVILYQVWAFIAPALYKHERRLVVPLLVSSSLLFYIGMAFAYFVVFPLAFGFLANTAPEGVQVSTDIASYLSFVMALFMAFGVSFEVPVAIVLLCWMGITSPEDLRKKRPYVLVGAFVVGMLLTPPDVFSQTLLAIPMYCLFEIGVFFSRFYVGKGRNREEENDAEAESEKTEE

[8] = target: the molecule itself; test: as above
[9] = target: T3, E. coli TatC of the His-tagged TatBC complex (TatBC_(His)6) (Escherichia coli), P69423; test: cryo-EM structure; co-expressed TatBC complexes (E. coli, N. salsuginis, M. xanthus) and N. salsuginis TatAC complex, solubilised and purified in GDN; settings: remark: other sources report otherwise
T3 chain: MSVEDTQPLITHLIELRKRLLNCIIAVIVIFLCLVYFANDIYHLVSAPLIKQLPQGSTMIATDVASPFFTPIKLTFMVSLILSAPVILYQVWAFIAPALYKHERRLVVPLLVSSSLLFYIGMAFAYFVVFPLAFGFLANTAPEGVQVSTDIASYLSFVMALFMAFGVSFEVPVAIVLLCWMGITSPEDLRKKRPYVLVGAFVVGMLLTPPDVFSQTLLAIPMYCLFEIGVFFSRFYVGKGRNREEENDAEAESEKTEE

- stoichiometry N [1]: 3
Molecule: N. salsuginis TatC (GFP-His removed) (natural protein)

B1: M. xanthus TatC (GFP-His removed) (natural protein, Myxococcus xanthus)
chain: MSLADHLTELRSRLMRCTIAVLILGTISLVFAKPIFGLLMQPVLDALPPENRSLIYTSGIEELNVLMKVGVYCGIFLTTPVILMQIWGFVSPGLYPEERRFAAPFVAFGSIAFLLGAAFCYFAVLPSMFTFLLNEEETLALEQRLDTARLRADDALRFLRLGEAEEAGRIAKETSTQLRAEGQGQAPAPEVAPAASVEMTGRLDGLGRLLDAASVGYGAQSRGVLRQAVEKRVEAVTAYEKKDFAAAAAAMDGSASLLAGIAPTRTEELAGLWRLEKELATAHAAHEAARWTRPMLSMHEQLSLVLLLILAFGIIFELPLVMALLGVVGVVKSSWLFRYQRHAFVVCLIAAAIITPTGDVVNLSLMAGPMLLCYELGVLLVWMVERRRARNSAETGITPAS
notes: TatC of Myxococcus xanthus (ATCC 19368), codon-optimised synthetic gene; has a folded periplasmic insert domain
- stoichiometry N [2]: 3

B2: M. xanthus TatC periplasmic domain (residues 127-303) (domain or fragment, Myxococcus xanthus, UniProt Q2PHA2 127-303, looked up)
chain: SMFTFLLNEEETLALEQRLDTARLRADDALRFLRLGEAEEAGRIAKETSTQLRAEGQGQAPAPEVAPAASVEMTGRLDGLGRLLDAASVGYGAQSRGVLRQAVEKRVEAVTAYEKKDFAAAAAAMDGSASLLAGIAPTRTEELAGLWRLEKELATAHAAHEAARWTRPMLSMHEQLS
modifications: selenomethionine-labelled
notes: periplasmic domain of TatC of Myxococcus xanthus, residues 127-303; also called M. xanthus insert; source: E. coli B834 (DE3), pET15b, SelenoMethionine media, purified (Ni-NTA, TEV, SEC)
- stoichiometry N [3]: 3

- stoichiometry N (signal peptide per TatB and TatC) [4]: 1
Molecule: MQRRDFLKYSVALGVASALPLWSRAVFA [E. coli CueO signal peptide (residues 1-28)]

- ratio of TatB to TatC in the TatABC complex relative to the TatBC complex [5]: 0.78
B3: E. coli TatB (natural protein, Escherichia coli)
chain: MFDIGFSELLLVFIIGLVVLGPQRLPVAVKTVAGWIRALRSLATTVQNELTQELKLQEFQDSLKKVEKASLTNLTPELKASMDELRQAAESMKRSYVANDPEKASDEAHTIHNPVVKDNEAAHEGVTPAAAQTQASSPEQKPETTPEPVVKPAADAEPKTAAPSPSSSDKP
notes: TatB of Escherichia coli, PCR from E. coli genomic DNA (DSM 1116); residues 1-63 modelled in the TatBC structure; source: E. coli MC4100 ΔtatABCD ΔtatE, overexpressed from a plasmid with TatC (and TatA), purified in GDN as part of the complex
- binding result [2]: binds

- stoichiometry N [6]: 2 TatB per core complex
B4: E. coli TatB with an inserted ALFA-His tag (natural protein, Escherichia coli, UniProt P69425 1-171, looked up)
chain: MFDIGFSELLLVFIIGLVVLGPQRLPVAVKTVAGWIRALRSLATTVQNELTQELKLQEFQDSLKKVEKASLTNLTPELKASMDELRQAAESMKRSYVANDPEKASDEAHTIHNPVVKDNEAAHEGVTPAAAQTQASSPEQKPETTPEPVVKPAADAEPKTAAPSPSSSDKP
notes: TatB of Escherichia coli; also called TatB_(ALFA)

- stoichiometry N [7]: 3 MdoD per (TatBC)3 complex
B5: E. coli MdoD, full length with its Tat signal peptide (natural protein, Escherichia coli, UniProt P40120 1-551, looked up)
chain: MDRRRFIKGSMAMAAVCGTSGIASLFSQAAFAADSDIADGQTQRFDFSILQSMAHDLAQTAWRGAPRPLPDTLATMTPQAYNSIQYDAEKSLWHNVENRQLDAQFFHMGMGFRRRVRMFSVDPATHLAREIHFRPELFKYNDAGVDTKQLEGQSDLGFAGFRVFKAPELARRDVVSFLGASYFRAVDDTYQYGLSARGLAIDTYTDSKEEFPDFTAFWFDTVKPGATTFTVYALLDSASITGAYKFTIHCEKSQVIMDVENHLYARKDIKQLGIAPMTSMFSCGTNERRMCDTIHPQIHDSDRLSMWRGNGEWICRPLNNPQKLQFNAYTDNNPKGFGLLQLDRDFSHYQDIMGWYNKRPSLWVEPRNKWGKGTIGLMEIPTTGETLDNIVCFWQPEKAVKAGDEFAFQYRLYWSAQPPVHCPLARVMATRTGMGGFSEGWAPGEHYPEKWARRFAVDFVGGDLKAAAPKGIEPVITLSSGEAKQIEILYIEPIDGYRIQFDWYPTSDSTDPVDMRMYLRCQGDAISETWLYQYFPPAPDKRQYVDDRVMS
notes: MdoD of Escherichia coli, precursor with its 32-residue Tat signal peptide; source: E. coli BL21 (DE3) ΔtatABCD ΔtatE, pET28a with N-terminal His6-SUMO, purified (His tag column), cut with Ulp1; not shown: His6, N-terminal, cleaved; SUMO, N-terminal, cleaved
- stoichiometry N [8]: 2

- stoichiometry N [6]: 1 TatA per core complex
B6: E. coli TatA with an inserted ALFA-His tag (natural protein, Escherichia coli, UniProt P69428 1-89, looked up)
chain: MGGISIWQLLIIAVIVVLLFGTKKLGSIGSDLGASIKGFKKAMSDDEPKQDKTSQDADFTAKTIADKQADTNQEQAKTEDAKRHDKEQV
notes: TatA of Escherichia coli; also called TatA_(ALFA); TatA_(ALFA,His); not shown: ALFA, internal (in the cytoplasmic part of TatA), kept

- stoichiometry N [9]: 3
B7: E. coli TatC of the His-tagged TatBC complex (TatBC_(His)6), P69423 1-258 (natural protein)
chain: MSVEDTQPLITHLIELRKRLLNCIIAVIVIFLCLVYFANDIYHLVSAPLIKQLPQGSTMIATDVASPFFTPIKLTFMVSLILSAPVILYQVWAFIAPALYKHERRLVVPLLVSSSLLFYIGMAFAYFVVFPLAFGFLANTAPEGVQVSTDIASYLSFVMALFMAFGVSFEVPVAIVLLCWMGITSPEDLRKKRPYVLVGAFVVGMLLTPPDVFSQTLLAIPMYCLFEIGVFFSRFYVGKGRNREEENDAEAESEKTEE
